In paper PMC2748308:

How the values were obtained:
Test in all cases: purified protein
Conditions in all cases: 50 mM Hepes pH 8.0
[1] = substrate: CC(C)C[C@H](NC(=O)[C@H](C)N)C(=O)O
[2] = substrate: CC(=O)N[C@@H](CC(C)C)C(=O)O
[3] = substrate: C[C@H](N)C(=O)N[C@@H](Cc1ccccc1)C(=O)O
[4] = substrate: CC(C)C[C@H](NC=O)C(=O)O
[5] = substrate: CC[C@H](C)[C@H](NC=O)C(=O)O
[6] = substrate: CC[C@H](C)[C@H](NC(C)=O)C(=O)O
[7] = substrate: CC(C)[C@H](NC=O)C(=O)O
[8] = substrate: CC(=O)N[C@@H](Cc1ccccc1)C(=O)O
[9] = substrate: CSCC[C@H](NC=O)C(=O)O
[10] = substrate: O=CN[C@@H](Cc1ccccc1)C(=O)O
[11] = substrate: O=CN[C@@H](Cc1ccc(O)cc1)C(=O)O
[12] = substrate: CC(C)C[C@H](NC(=O)[C@@H](N)CC(=O)O)C(=O)O
[13] = substrate: CC(=O)N[C@@H](Cc1ccc(O)cc1)C(=O)O

B1: Sgx9355e (Alteromonas macleodii) (protein)
chain: MSLDVDSKTLIHAGKLIDGKSDQVQSRISIVIDGNIISDIKKGFISSNDFEDYIDLRDHTVLPGLMDMHVHFGQEYQSKAQAPIKVEREMQAILATQHAYVTFKSGFTTVRQVGDSGLVAISLRDAINSGKLAGPRIFAAGKTIATTGGHADPTNGKAVDDYDYPVPEQGVVNGPYEVYAAVRQRYKDGADGIKITVTGGVLSVAKSGQNPQFTQEEVDAVVSAAKDYGMWVAVHAHGAEGMKRAIKAGVDSIEHGTFMDLEAMDLMIENGTYYVPTISAGEFVAEKSKIDNFFPEIVRPKAASVGPQISDTFRKAYEKGVKIAFGTDAGVQKHGTNWKEFVYMVENGMPAMKAIQSATMETAKLLRIEDKLGSIESGKLADLIAVKGNPIEDISVLENVDVVIKDGLLYE
Question: What does the source list for B1?
Answer: Km [1]: 250 ± 30 µM; kcat [1]: 0.34 ± 0.01 s⁻¹; kcat/Km [1]: 1300 ± 200 M⁻¹ s⁻¹; Km [2]: 110 ± 10 µM; kcat [2]: 0.032 ± 0.01 s⁻¹; Km [3]: 70 ± 10 µM; kcat [3]: 0.41 ± 0.01 s⁻¹; kcat/Km [3]: 5800 ± 600 M⁻¹ s⁻¹; Km [4]: 260 ± 40 µM; kcat [4]: 0.072 ± 0.003 s⁻¹; kcat/Km [4]: 280 ± 40 M⁻¹ s⁻¹

B2: Cc0300 (Caulobacter vibrioides CB15) (protein)
chain: QATFVQAGRLLADPATGKVEIAKTLVLENGKVTRILDGYVAEPGGKVVDLKDSFVLPGLIDSHVHLTGQQNPNGRLQAVTQSPSDSAMVGAGFARKTLMAGFTTVANLGANSQAIFALREGVKRGDVAGPRILASGSSISVHGGHGDINGYSEDVMHALRPESVCSGADDCRRAVREQIWLGADLIKITATGGVLSNTAAGLAKQFSDAELAAIVESAHSMGRKVTAHAHGGDGINAFLKAGGDSIEHGTYLDNEGIALMKKSGAYLVPTLMAGDFVYRIASGPNNYFTPAQTAKALEAGPKMLDMVRRAHADGVKVAFGTDSGVSAHGDNAGEFALLVKAGMTPLEAIQTATVNAADHFSLSNEIGSLTPGKAADLIAVKGDPLKDVTELQRVTSVIKGGVVYK
Question: Which results are given for B2?
Answer: Km [1]: 350 ± 40 µM; kcat [1]: 37 ± 2 s⁻¹; kcat/Km [1]: 110000 ± 10000 M⁻¹ s⁻¹; Km [2]: 150 ± 30 µM; kcat [2]: 2.5 ± 0.1 s⁻¹; kcat/Km [2]: 16000 ± 3000 M⁻¹ s⁻¹; Km [5]: 70 ± 10 µM; kcat [5]: 20 ± 1 s⁻¹; kcat/Km [5]: 290000 ± 40000 M⁻¹ s⁻¹; Km [6]: 140 ± 20 µM; kcat [6]: 2.6 ± 0.1 s⁻¹; kcat/Km [6]: 19000 ± 2000 M⁻¹ s⁻¹; Km [7]: 80 ± 10 µM; kcat [7]: 18 ± 1 s⁻¹; kcat/Km [7]: 220000 ± 30000 M⁻¹ s⁻¹; Km [8]: 310 ± 30 µM; kcat [8]: 5.3 ± 0.2 s⁻¹; kcat/Km [8]: 17000 ± 2000 M⁻¹ s⁻¹; Km [9]: 410 ± 30 µM; kcat [9]: 12 ± 1 s⁻¹; kcat/Km [9]: 29000 ± 2000 M⁻¹ s⁻¹; Km [10]: 260 ± 30 µM; kcat [10]: 52 ± 2 s⁻¹; kcat/Km [10]: 200000 ± 20000 M⁻¹ s⁻¹; Km [11]: 90 ± 10 µM; kcat [11]: 33 ± 1 s⁻¹; kcat/Km [11]: 390000 ± 40000 M⁻¹ s⁻¹; Km [3]: 660 ± 50 µM; kcat [3]: 19 ± 1 s⁻¹; kcat/Km [3]: 29000 ± 3000 M⁻¹ s⁻¹; Km [4]: 130 ± 10 µM; kcat [4]: 39 ± 2 s⁻¹; kcat/Km [4]: 300000 ± 30000 M⁻¹ s⁻¹; Km [12]: 220 ± 40 µM; kcat [12]: 29 ± 1 s⁻¹; kcat/Km [12]: 130000 ± 20000 M⁻¹ s⁻¹; Km [13]: 170 ± 20 µM; kcat [13]: 4.6 ± 0.2 s⁻¹; kcat/Km [13]: 27000 ± 3000 M⁻¹ s⁻¹
